Test results reported in paper PMC7393355, “A FRET-based screening method to detect potential inhibitors of the binding of CNNM3 to PRL2” (Scientific Reports, 2020).

How the values were obtained:
[1] = target: CNNM3 CBS domain (residues 301-452) with YPet at its C-terminus (UniProt Q8NE01); test: FRET competition (inhibition) assay; details: CNNM3-YPet 200 nM, CyPet-PRL2 200 nM, pre-incubation 20 min at R.T., control without competitor est. 98%, n = 6, read off a plot
[2] = target: PRL3 (Homo sapiens) (UniProt O75365); details: cited from earlier work
PRL3 (Homo sapiens), sequence (O75365 1-170 C104E): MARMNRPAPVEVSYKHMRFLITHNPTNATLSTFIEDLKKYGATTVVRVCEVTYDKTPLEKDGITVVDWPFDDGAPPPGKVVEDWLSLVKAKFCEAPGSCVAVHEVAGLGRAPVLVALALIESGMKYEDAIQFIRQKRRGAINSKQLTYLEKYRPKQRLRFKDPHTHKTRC

CNNM3 CBS domain (residues 301-452) with YPet at its C-terminus, sequence (Q8NE01 301-452): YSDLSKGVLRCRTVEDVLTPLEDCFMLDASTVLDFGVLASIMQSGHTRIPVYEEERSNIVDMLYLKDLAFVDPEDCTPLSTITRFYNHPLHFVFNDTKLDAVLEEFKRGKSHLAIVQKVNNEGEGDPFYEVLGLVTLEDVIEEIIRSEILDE
non-fluorescence protein-tagged PRL2, sequence (Q12974 whole entry, stated change not applied): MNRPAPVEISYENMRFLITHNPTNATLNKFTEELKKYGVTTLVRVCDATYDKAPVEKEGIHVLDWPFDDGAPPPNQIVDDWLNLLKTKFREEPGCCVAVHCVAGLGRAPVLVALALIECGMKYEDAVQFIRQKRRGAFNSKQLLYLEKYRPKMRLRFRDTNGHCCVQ
CNNM3, sequence (Q8NE01 whole entry): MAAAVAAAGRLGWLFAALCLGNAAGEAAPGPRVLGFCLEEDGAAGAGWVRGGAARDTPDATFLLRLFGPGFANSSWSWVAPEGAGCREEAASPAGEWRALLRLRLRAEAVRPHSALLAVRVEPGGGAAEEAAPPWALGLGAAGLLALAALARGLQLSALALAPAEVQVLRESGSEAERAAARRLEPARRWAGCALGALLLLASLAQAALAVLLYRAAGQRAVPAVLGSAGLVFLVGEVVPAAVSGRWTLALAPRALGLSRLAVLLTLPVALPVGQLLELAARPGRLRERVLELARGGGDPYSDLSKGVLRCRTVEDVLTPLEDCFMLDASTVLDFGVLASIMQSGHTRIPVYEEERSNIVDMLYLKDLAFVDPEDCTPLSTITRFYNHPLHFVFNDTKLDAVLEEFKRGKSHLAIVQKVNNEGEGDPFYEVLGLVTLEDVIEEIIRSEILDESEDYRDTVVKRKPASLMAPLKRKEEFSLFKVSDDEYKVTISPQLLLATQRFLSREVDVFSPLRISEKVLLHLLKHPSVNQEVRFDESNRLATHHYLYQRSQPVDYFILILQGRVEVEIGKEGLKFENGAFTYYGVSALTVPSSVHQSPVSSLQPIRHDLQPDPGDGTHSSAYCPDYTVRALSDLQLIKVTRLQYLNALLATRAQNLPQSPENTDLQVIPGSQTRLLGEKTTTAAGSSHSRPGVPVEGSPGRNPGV

Row | response ([1]; 1 µM untagged competitor, parent: est. 15) [%] | response ([1]; 10 µM untagged competitor, parent: est. 11) [%] | Substance | Kd [2] [µM]
1 | 97 | 76 | non-fluorescence protein-tagged PRL2 (from UniProt Q12974-1) C107E | 
2 |  |  | CNNM3 (from UniProt Q8NE01) | 2.8
